Assay results published in the supplement of paper PMC11246515.
± gives the standard deviation of the averaged measurements.

Assay: total protein half-life in vivo (active degradation + dilution); higher = more stable protein
[1] = E. coli NCM3722 delta-clpP delta-lon delta-hslV, growth: N-lim chemostat, doubling time 6 h
[2] = E. coli NCM3722 delta-clpP, growth: N-lim chemostat, doubling time 6 h
[3] = E. coli NCM3722 delta-hslV, growth: N-lim chemostat, doubling time 6 h
[4] = E. coli NCM3722 delta-lon, growth: N-lim chemostat, doubling time 6 h
[5] = E. coli NCM3722 delta-smpB, growth: N-lim chemostat, doubling time 6 h
[6] = wild type E. coli NCM3722, growth: C-lim chemostat, doubling time 3 h
[7] = wild type E. coli NCM3722, growth: C-lim chemostat, doubling time 6 h
[8] = wild type E. coli NCM3722, growth: C-lim chemostat, doubling time 12 h
[9] = wild type E. coli NCM3722, growth: N-lim chemostat, doubling time 6 h
[10] = wild type E. coli NCM3722, growth: N-lim chemostat, doubling time 12 h
[11] = wild type E. coli NCM3722, growth: P-lim chemostat, doubling time 6 h
[12] = wild type E. coli NCM3722, growth: P-lim chemostat, doubling time 12 h

## MDKFRVQGPTKLQGEVTISGAKNAALPILFAALLAEEPVEIQNVPKLKDVDTSMKLLSQLGAKVERNGSVHIDARDVNVFCAPYDLVKTMRASIWALGPLVARFGQGQVSLPGGCTIGARPVDLHISGLEQLGATIKLEEGYVKASVDGRLKGAHIVMDKVSVGATVTIMCAATLAEGTTIIENAAREPEIVDTANFLITLGAKISGQGTDRIVIEGVERLGGGVYRVLPDRIETGTFLVAAAISRGKIICRNAQPDTLDAVLAKLRDAGADIEVGEDWISLDMHGKRPKAVNVRTAPHPAFPTDMQAQFTLLNLVAEGTGFITETVFENRFMHVPELSRMGAHAEIESNTVICHGVEKLSGAQVMATDLRASASLVLAGCIAEGTTVVDRIYHIDRGYERIEDKLRALGANIERVKGE [P0A749]
[1]
  total protein half-life in vivo: 4.88 ± 0.64 h
[2]
  total protein half-life in vivo: 3.91 ± 0.28 h
[3]
  total protein half-life in vivo: 3.48 ± 0.22 h
[4]
  total protein half-life in vivo: 4.25 ± 0.55 h
[5]
  total protein half-life in vivo: 3.39 ± 0.23 h
[6]
  total protein half-life in vivo: 2.92 ± 0.043 h
[7]
  total protein half-life in vivo: 6.05 ± 1.2 h
[8]
  total protein half-life in vivo: 9.85 ± 0.48 h
[9]
  total protein half-life in vivo: 3.47 ± 0.084 h
[10]
  total protein half-life in vivo: 5.28 ± 0.25 h
[11]
  total protein half-life in vivo: 5.53 ± 0.1 h
[12]
  total protein half-life in vivo: 10.9 ± 0.56 h

## MGRISSGGMMFKAITTVAALVIATSAMAQDDLTISSLAKGETTKAAFNQMVQGHKLPAWVMKGGTYTPAQTVTLGDETYQVMSACKPHDCGSQRIAVMWSEKSNQMTGLFSTIDEKTSQEKLTWLNVNDALSIDGKTVLFAALTGSLENHPDGFNFK [P0AD59]
[1]
  total protein half-life in vivo: 5.34 ± 0.85 h
[2]
  total protein half-life in vivo: 5.71 ± 1 h
[3]
  total protein half-life in vivo: 6.18 ± 0.25 h
[4]
  total protein half-life in vivo: 6.285 ± 0.011 h
[8]
  total protein half-life in vivo: 9.68 ± 1.2 h
[9]
  total protein half-life in vivo: 5.85 ± 0.58 h
[10]
  total protein half-life in vivo: 12.6 ± 0.36 h
[11]
  total protein half-life in vivo: 5.4 ± 0.3 h
[12]
  total protein half-life in vivo: 12.9 ± 1 h

## MSRSLLTNETSELDLLDQRPFDQTDFDILKSYEAVVDGLAMLIGSHCEIVLHSLQDLKCSAIRIANGEHTGRKIGSPITDLALRMLHDMTGADSSVSKCYFTRAKSGVLMKSLTIAIRNREQRVIGLLCINMNLDVPFSQIMSTFVPPETPDVGSSVNFASSVEDLVTQTLEFTIEEVNADRNVSNNAKNRQIVLNLYEKGIFDIKDAINQVADRLNISKHTVYLYIRQFKSGDFQGQDK
[1]
  total protein half-life in vivo: 6.19 ± 0.97 h
[2]
  total protein half-life in vivo: 4.65 ± 0.54 h
[3]
  total protein half-life in vivo: 3.52 ± 0.076 h
[4]
  total protein half-life in vivo: 3.21 ± 0.28 h
[5]
  total protein half-life in vivo: 3.38 ± 0.41 h
[6]
  total protein half-life in vivo: 2.482 ± 0.004 h
[7]
  total protein half-life in vivo: 4.69 ± 1.3 h
[8]
  total protein half-life in vivo: 6.93 ± 0.81 h
[9]
  total protein half-life in vivo: 3.36 ± 0.46 h
[10]
  total protein half-life in vivo: 4.95 ± 1.1 h
[11]
  total protein half-life in vivo: 3.94 ± 0.15 h
[12]
  total protein half-life in vivo: 6.94 ± 0.43 h

## MIKIGVIADDFTGATDIASFLVENGLPTVQINGVPTGKMPEAIDALVISLKTRSCPVVEATQQSLAALSWLQQQGCKQIYFKYCSTFDSTAKGNIGPVTDALMDALDTPFTVFSPALPVNGRTVYQGYLFVMNQLLAESGMRHHPVNPMTDSYLPRLVEAQSTGRCGVVSAHVFEQGVDAVRQELARLQQEGYRYAVLDALTEHHLEIQGEALRDAPLVTGGSGLAIGLARQWAQENGNQARKAGRPLAGRGVVLSGSCSQMTNRQVAHYRQIAPAREVDVARCLSIETLAAYAHELAEWVLGQESVLAPLVFATASTDALAAIQQQYGAQKASQAVETLFSQLAARLAAEGVTRFIVAGGETSGVVTQSLGIKGFHIGPTISPACRG
[1]
  total protein half-life in vivo: 5.65 ± 0.84 h
[12]
  total protein half-life in vivo: 11.4 h

## MKTVTVKDLVIGTGAPKIIVSLMAKDIASVKSEALAYREADFDILEWRVDHYADLSNVESVMAAAKILRETMPEKPLLFTFRSAKEGGEQAISTEAYIALNRAAIDSGLVDMIDLELFTGDDQVKETVAYAHAHDVKVVMSNHDFHKTPEAEEIIARLRKMQSFDADIPKIALMPQSTSDVLTLLAATLEMQEQYADRPIITMSMAKTGVISRLAGEVFGSAATFGAVKKASAPGQISVNDLRTVLTILHQA
[1]
  total protein half-life in vivo: 3.99 ± 0.25 h
[2]
  total protein half-life in vivo: 4.15 ± 0.66 h
[3]
  total protein half-life in vivo: 3.51 ± 0.0088 h
[4]
  total protein half-life in vivo: 4.3 ± 0.52 h
[5]
  total protein half-life in vivo: 3.62 ± 0.46 h
[6]
  total protein half-life in vivo: > 4 h
[7]
  total protein half-life in vivo: 5.56 ± 1 h
[8]
  total protein half-life in vivo: 9.4 ± 0.9 h
[9]
  total protein half-life in vivo: 3.68 ± 0.14 h
[10]
  total protein half-life in vivo: 5.5 ± 0.19 h
[11]
  total protein half-life in vivo: 5.38 ± 0.21 h
[12]
  total protein half-life in vivo: 11 ± 0.46 h

## MAYKHILIAVDLSPESKVLVEKAVSMARPYNAKVSLIHVDVNYSDLYTGLIDVNLGDMQKRISEETHHALTELSTNAGYPITETLSGSGDLGQVLVDAIKKYDMDLVVCGHHQDFWSKLMSSARQLINTVHVDMLIVPLRDEEE [P0AED0]
[1]
  total protein half-life in vivo: 3.96 h
[2]
  total protein half-life in vivo: 4.94 ± 0.073 h
[3]
  total protein half-life in vivo: 4.31 ± 0.27 h
[4]
  total protein half-life in vivo: 4.3 ± 0.64 h
[5]
  total protein half-life in vivo: 4.52 ± 0.15 h
[6]
  total protein half-life in vivo: 3.34 ± 0.46 h
[7]
  total protein half-life in vivo: 5.16 ± 0.1 h
[8]
  total protein half-life in vivo: 10.7 ± 1.6 h
[9]
  total protein half-life in vivo: 4.305 ± 0.0018 h
[11]
  total protein half-life in vivo: 5.92 ± 0.084 h
[12]
  total protein half-life in vivo: 9.86 ± 1.9 h

## MNPIAVTLLTGFLGAGKTTLLRHILNEQHGYKIAVIENEFGEVSVDDQLIGDRATQIKTLTNGCICCSRSNELEDALLDLLDNLDKGNIQFDRLVIECTGMADPGPIIQTFFSHEVLCQRYLLDGVIALVDAVHADEQMNQFTIAQSQVGYADRILLTKTDVAGEAEKLHERLARINARAPVYTVTHGDIDLGLLFNTNGFMLEENVVSTKPRFHFIADKQNDISSIVVELDYPVDISEVSRVMENLLLESADKLLRYKGMLWIDGEPNRLLFQGVQRLYSADWDRPWGDEKPHSTMVFIGIQLPEEEIRAAFAGLRK
[1]
  total protein half-life in vivo: 5.11 ± 1.4 h
[2]
  total protein half-life in vivo: 3.49 ± 0.12 h
[3]
  total protein half-life in vivo: 3.471 ± 0.032 h
[4]
  total protein half-life in vivo: 3.97 ± 0.38 h
[5]
  total protein half-life in vivo: 3.65 ± 0.28 h
[6]
  total protein half-life in vivo: 2.876 ± 0.022 h
[7]
  total protein half-life in vivo: 5.139 ± 0.017 h
[8]
  total protein half-life in vivo: 8.715 ± 0.082 h
[9]
  total protein half-life in vivo: 3.52 ± 0.3 h
[10]
  total protein half-life in vivo: 6.14 ± 0.095 h
[11]
  total protein half-life in vivo: 4.95 ± 0.4 h
[12]
  total protein half-life in vivo: 10 ± 0.33 h
